The text below walks through data of patent US20130295102A1 (Novartis, published 2013).

Positions count from the first letter of the chain named.

The labels stand for the following.
B1: NVS962 (Fab, V domains shown)
VH: EVQLVQSGAEVKKPGSSVKVSCKASGGTFNSYAISWVRQAPGQGLEWMGRIIPIFGTANYAQKFQGRVTITADESTSTAYMELSSLRSEDTAVYYCARHGGYSFDSWGQGTLVTVSS
VL: SYELTQPPSVSVAPGQTARISCSGDNLGSKYVDWYQQKPGQAPVLVIYSDNNRPSGIPERFSGSNSGNTATLTISGTQAEDEADYYCQTYTSGNNYLVFGGGTKLTVLG
notes: also called Fab NVS962
B2: NVS962-G (Fab, V domains shown)
VH: B1 VH with N30G
VL: B1 VL
notes: NVS962 with heavy chain N30 replaced with glycine
B3: NVS962-S (Fab, V domains shown)
VH: B1 VH with N30S
VL: B1 VL
notes: NVS962 with heavy chain N30 replaced with serine
B4: NVS806 (Fab, V domains shown)
VH: B1 VH with N30S, S103V
VL: B1 VL
B5: NVS808 (Fab, V domains shown)
VH: B1 VH with N30S, S103I
VL: B1 VL
B6: NVS962-S31A (Fab, V domains shown)
VH: B1 VH with S31A
VL: B1 VL
notes: NVS962 with heavy chain serine 31 replaced with alanine
B7: NVS805 (Fab, V domains shown)
VH: B1 VH with N30S, S103V
VL: B1 VL with E3V, Q16K, E80M, Q88A, T91D, G93S, N94P, N95R, Y96T, L97E
B8: NVS962-Q (Fab, V domains shown)
VH: B1 VH with N30Q
VL: B1 VL
notes: NVS962 with heavy chain N30 replaced with glutamine (deamidation site removed)
B9: NVS804 (Fab, V domains shown)
VH: B1 VH with N30S, S103I
VL: B1 VL with E3V, Q16K, E80M, Q88A, T91D, G93S, N94P, N95R, Y96T, L97E
B10: NVS809 (Fab, V domains shown)
VH: B1 VH with N30S, S103Y
VL: B1 VL with E3V, Q16K, E80M, Q88A, T91D, G93S, N94P, N95R, Y96T, L97E
B11: NVS807 (Fab, V domains shown)
VH: B1 VH with N30S, S103Y
VL: B1 VL

For the first test, the target named is T1, Human Factor P (human, UniProt P27918 29-469).
T1 construct: Bought protein (Complement Technology cat# A139) in SET and Biacore; Factor P of human serum in the functional assays; also called FP; human FP
T1 sequence (P27918 29-469 limits assumed): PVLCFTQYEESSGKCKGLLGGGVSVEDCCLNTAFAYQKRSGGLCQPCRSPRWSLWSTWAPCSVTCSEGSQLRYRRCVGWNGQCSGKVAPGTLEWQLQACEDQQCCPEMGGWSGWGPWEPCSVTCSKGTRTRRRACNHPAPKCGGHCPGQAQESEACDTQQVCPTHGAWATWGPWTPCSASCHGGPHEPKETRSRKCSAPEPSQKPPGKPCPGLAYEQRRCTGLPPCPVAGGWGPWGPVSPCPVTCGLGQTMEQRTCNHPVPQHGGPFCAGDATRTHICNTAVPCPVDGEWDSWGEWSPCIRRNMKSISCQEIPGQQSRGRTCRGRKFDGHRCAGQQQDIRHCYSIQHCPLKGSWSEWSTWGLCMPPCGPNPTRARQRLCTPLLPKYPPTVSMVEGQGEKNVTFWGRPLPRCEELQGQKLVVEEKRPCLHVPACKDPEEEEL
Put plainly: Biacore SPR, captured Factor P.
Molecule B1 yielded a Kd of 0.083 nM, a koff of 0.000125 s⁻¹ and a kon of 1.52e+06 M⁻¹ s⁻¹.

As for B2, the Kd amounted to 1.14 nM, the koff came out at 0.00044 s⁻¹ and the kon amounted to 387000 M⁻¹ s⁻¹.

B3 registered an equilibrium dissociation constant (Kd) of 0.161 nM, an off-rate constant (koff) of 0.000117 s⁻¹ and a kon of 730000 M⁻¹ s⁻¹.

B4 registered a Kd of 0.052 nM, a dissociation rate constant (koff) of 2.24e-05 s⁻¹ and a kon of 434000 M⁻¹ s⁻¹.

Take B5: the Kd is 0.195 nM, the koff came out at 0.000154 s⁻¹ and the on-rate (kon) was 791000 M⁻¹ s⁻¹.

Regarding B6, the affinity, expressed as Kd, was 0.225 nM; the koff was 0.000113 s⁻¹; the kon came out at 504000 M⁻¹ s⁻¹.

The molecule B7 displayed a Kd of 0.003 nM, a koff of 9.88e-06 s⁻¹ and a kon of 3.61e+06 M⁻¹ s⁻¹.

B8 showed a Kd of 0.496 nM, a koff of 0.000311 s⁻¹ and a kon of 627000 M⁻¹ s⁻¹.

With B9, the Kd was 0.005 nM, the dissociation rate constant (koff) came out at 1.29e-05 s⁻¹ and the kon worked out at 2.72e+06 M⁻¹ s⁻¹.

The molecule B10 returned a Kd of 0.0247 nM, a koff of 0.000104 s⁻¹ and a kon of 4.25e+06 M⁻¹ s⁻¹.

With B11, the affinity, expressed as Kd, was 0.106 nM; the koff turned out to be 0.000123 s⁻¹; the kon amounted to 1.21e+06 M⁻¹ s⁻¹.

For the next test, the target named is T2, Cynomolgus Factor P (cynomolgus).
T2 construct: Purified from cynomolgus serum for SET/Biacore; Factor P of cynomolgus serum in the functional assays; also called Cyno Factor P; cyno FP
Put plainly: Biacore SPR, captured Factor P.
B1 came in with a Kd of 0.182 nM, a koff of 0.000279 s⁻¹ and an on-rate (kon) of 1.53e+06 M⁻¹ s⁻¹.

In turn, B2 displayed a dissociation constant Kd of 1.08 nM, a koff of 0.000339 s⁻¹ and a kon of 313000 M⁻¹ s⁻¹.

For B3, the affinity, expressed as Kd, was 0.127 nM; the koff was 6.66e-05 s⁻¹; the kon turned out to be 524000 M⁻¹ s⁻¹.

B6 displayed a Kd of 0.234 nM, a koff of 8.7e-05 s⁻¹ and a kon of 372000 M⁻¹ s⁻¹.

B8 showed a Kd of 0.475 nM, an off-rate constant (koff) of 0.000264 s⁻¹ and a kon of 555000 M⁻¹ s⁻¹.

The next test has as its target T1, Human Factor P. Put plainly: cell-based or functional assay.
Consider B1, for which the “Hemolytic assay IC50 (nM), 10% serum” value came to 13.2 nM; the “Inhibition of C3a generation, 20% human serum” value stood at 78.4 nM; the “MAC Deposition, 20% Serum EC50” value was found to be 18.8 nM; the “Zymosan-C3b IC50 (nM), 10% serum” value turned out to be 2.63 nM.

With B2, the “Hemolytic assay IC50 (nM), 10% serum” value amounted to 13.4 nM; the “MAC Deposition, 20% Serum EC50” value turned out to be 12.7 nM; the “Zymosan-C3b IC50 (nM), 10% serum” value amounted to 1.18 nM.

For the molecule B3, the “Hemolytic assay IC50 (nM), 10% serum” value was found to be 8.21 nM; the “MAC Deposition, 20% Serum EC50” value stood at 6.53 nM; the “Zymosan-C3b IC50 (nM), 10% serum” value worked out at 1.53 nM.

As to B4, the “Hemolytic assay IC50 (nM), 10% serum” value is 10.1 nM and the “MAC Deposition, 20% Serum EC50” value was 5.74 nM.

For the molecule B5, the “Hemolytic assay IC50 (nM), 10% serum” value is 13.3 nM and the “MAC Deposition, 20% Serum EC50” value came out at 6.51 nM.

Regarding B6, the “Hemolytic assay IC50 (nM), 10% serum” value turned out to be 12.8 nM; the “MAC Deposition, 20% Serum EC50” value is 9.96 nM; the “Zymosan-C3b IC50 (nM), 10% serum” value was found to be 1.15 nM.

As to B7, the “Hemolytic assay IC50 (nM), 10% serum” value came to 12.8 nM and the “MAC Deposition, 20% Serum EC50” value was determined as 5.9 nM.

With B8, the “Hemolytic assay IC50 (nM), 10% serum” value stood at 15.3 nM; the “MAC Deposition, 20% Serum EC50” value amounted to 23.1 nM; the “Zymosan-C3b IC50 (nM), 10% serum” value came to 0.64 nM.

For B9, the “Hemolytic assay IC50 (nM), 10% serum” value came to 12.4 nM and the “MAC Deposition, 20% Serum EC50” value was found to be 5.85 nM.

As to B10, the “Hemolytic assay IC50 (nM), 10% serum” value turned out to be 12.1 nM and the “MAC Deposition, 20% Serum EC50” value is 6.46 nM.

With B11, the “Hemolytic assay IC50 (nM), 10% serum” value amounted to 12.9 nM and the “MAC Deposition, 20% Serum EC50” value was 5.4 nM.

In another test the target is T2, Cynomolgus Factor P. Put plainly: cell-based or functional assay.
Regarding B1, the “Hemolytic assay IC50 (nM), 10% serum” value turned out to be 16.1 nM; the “MAC Deposition, 20% Serum EC50” value is 12.1 nM; the “Zymosan-C3b IC50 (nM), 10% serum” value was found to be 9.91 nM.

Consider B2, for which the “Hemolytic assay IC50 (nM), 10% serum” value was 14.2 nM; the “MAC Deposition, 20% Serum EC50” value stood at 9.27 nM; the “Zymosan-C3b IC50 (nM), 10% serum” value was 2.94 nM.

Regarding B3, the “Hemolytic assay IC50 (nM), 10% serum” value amounted to 12 nM; the “MAC Deposition, 20% Serum EC50” value turned out to be 15.6 nM; the “Zymosan-C3b IC50 (nM), 10% serum” value was 1.94 nM.

On to B4, for which the “Hemolytic assay IC50 (nM), 10% serum” value was 13.9 nM and the “MAC Deposition, 20% Serum EC50” value amounted to 6.51 nM.

Take B5: the “Hemolytic assay IC50 (nM), 10% serum” value came to 15.5 nM and the “MAC Deposition, 20% Serum EC50” value stood at 8.38 nM.

Regarding B6, the “Hemolytic assay IC50 (nM), 10% serum” value amounted to 11.6 nM; the “MAC Deposition, 20% Serum EC50” value stood at 7.86 nM; the “Zymosan-C3b IC50 (nM), 10% serum” value worked out at 3.12 nM.

As to B7, the “Hemolytic assay IC50 (nM), 10% serum” value is 22.1 nM and the “MAC Deposition, 20% Serum EC50” value was found to be 5.95 nM.

On to B8, for which the “Hemolytic assay IC50 (nM), 10% serum” value amounted to 14.7 nM; the “MAC Deposition, 20% Serum EC50” value came out at 20.9 nM; the “Zymosan-C3b IC50 (nM), 10% serum” value came out at 1.62 nM.

Take B9: the “Hemolytic assay IC50 (nM), 10% serum” value is 14.4 nM and the “MAC Deposition, 20% Serum EC50” value came to 8.51 nM.

Consider B10, for which the “Hemolytic assay IC50 (nM), 10% serum” value was found to be 12.8 nM and the “MAC Deposition, 20% Serum EC50” value was found to be 5.9 nM.

As for B11, the “Hemolytic assay IC50 (nM), 10% serum” value came out at 12.6 nM and the “MAC Deposition, 20% Serum EC50” value was found to be 6.35 nM.

For another test, the target named is T1, Human Factor P. Kind of test: SET, solution equilibrium titration. The method, then:
(§1) In SET, a constant amount of antibody is incubated with different concentrations of antigen until equilibrium is reached. The concentration of free antibody in the equilibrated solution is determined by applying the solution on an antigen coated MSD™ plate (Meso Scale Discovery™) followed by incubation with an ECL-labeled secondary antibody and measurement of signal intensity. At low antigen concentrations, a strong signal is achieved (high concentration of free antibody which binds to the antigen on the plate) whereas for high antigen concentration, the antibody is completely antigen-captured, resulting in a low signal. If a sufficient number of antigen concentrations in a matching range are available, the titration curve allows for a reasonable determination of the affinity, using the appropriate fit model. […] The constant concentration of antibody applied in the assay should be in the range of, or below, the KD (Table 4).
(§2) Human Factor P (Complement Technology cat#: A139) and Cyno Factor P purified from cyno serum (protocol adapted from Nakano, et al., (1986) J Immunol Methods 90:77-83) were coated on standard binding MSD plates (Meso-Scale Discovery, 384-well: MSD cat#: L21XA, 96-well: MSD cat#: L15XA) at 0.2-0.3 μg/ml in 25 μl PBS and incubated overnight at 4° C. Factor P inhibitors were diluted to a fixed concentration (1 pM or 10 pM) in incubation buffer (PBS with 2% BSA (Sigma cat#: A4503) and 1% Tween20 and 1% Triton-X (Sigma cat#: 234729)), and added to a serial dilution of Factor P (human or cyno) in incubation buffer. Samples were allowed to reach equilibrium by incubation at RT overnight. Plates were washed 3× in wash buffer (PBS with 0.05% Tween20), and blocked with 100 μl incubation buffer at RT for 2 hrs. Plates were washed 3× in wash buffer. Sample containing Factor P inhibitors and Factor P titration were added to the plate (25 μl), and incubated at RT for 15 min. Plates were washed 3× in wash buffer. 25 μl detection antibody was added (Anti-Human (Goat) Sulfo-TAG, 1:1000 in incubation buffer, MSD cat#: R32AJ-1), and incubated at RT for 60 min. Plates were washed 3× in wash buffer, and 50 μl of 1×MSD Read buffer T was added (with surfactant, MSD cat#: R92TC-1). Plates were read on a MSD Spector Imager 6000.
As for B1, the dissociation constant Kd is 0.046 nM.

In the case of B2, the Kd is 0.953 nM.

With B3, the Kd was found to be 0.156 nM.

B4: the Kd was 0.018 nM.

With B5, the Kd was 0.107 nM.

For B6, the Kd came out at 0.189 nM.

Regarding B7, the Kd amounted to 0.0003 nM.

Take B8: the Kd stood at 1.06 nM.

Regarding B9, the Kd is 0.0008 nM.

B10: the Kd was 0.0042 nM.

Consider B11, for which the Kd came out at 0.027 nM.

The next test deals with T2, Cynomolgus Factor P. Kind of test: SET, solution equilibrium titration. The method, then: as §1, §2
In the case of B1, the Kd was 0.047 nM.

In the case of B2, the Kd was found to be 0.567 nM.

Consider B3, for which the Kd amounted to 0.141 nM.

Turning to B6, the Kd stood at 0.189 nM.

Consider B8, for which the Kd was 0.93 nM.
